Data from patent US20250353909A1 (IMCHECK THERAPEUTICS, published 2025).
One block for each molecule: values may come before it.

How the values were obtained:
[1] = target: human BTN3A, endogenous on human cells (PBMCs; Daudi cells) (human) (UniProt O00481); test: flow cytometry, human PBMCs Donor 1, from the fitted curve
[2] = target: human BTN3A, endogenous on human cells (PBMCs; Daudi cells) (human) (UniProt O00481); test: flow cytometry, human PBMCs Donor 1, PE anti-human secondary
[3] = target: BTN3A1 antigen (Sino Biological cat. no. 15973-H08H) (human) (UniProt O00481); test: SPR Biacore T200, single cycle kinetics, culture supernatants
[4] = target: cynomolgus BTN3A, endogenous on cynomolgus PBMCs (cynomolgus); test: flow cytometry, cynomolgus PBMCs Donor 1, from the fitted curve
[5] = target: cynomolgus BTN3A, endogenous on cynomolgus PBMCs (cynomolgus); test: flow cytometry, cynomolgus PBMCs Donor 2, from the fitted curve
[6] = target: cynomolgus BTN3A, endogenous on cynomolgus PBMCs (cynomolgus); test: flow cytometry, cynomolgus PBMCs Donor 3, from the fitted curve
[7] = target: cynomolgus BTN3A, endogenous on cynomolgus PBMCs (cynomolgus); test: flow cytometry, cynomolgus PBMCs Donor 1, PE anti-human secondary
[8] = target: cynomolgus BTN3A, endogenous on cynomolgus PBMCs (cynomolgus); test: flow cytometry, cynomolgus PBMCs Donor 2, PE anti-human secondary
[9] = target: cynomolgus BTN3A, endogenous on cynomolgus PBMCs (cynomolgus); test: flow cytometry, cynomolgus PBMCs Donor 3, PE anti-human secondary
[10] = target: BTN3A1 antigen (Sino Biological cat. no. 15973-H08H) (human) (UniProt O00481); test: SPR Biacore T200, multi-cycle kinetics, antibody captured on Protein A, BTN3A1 as analyte
[11] = target: T1, human BTN3A, endogenous on human cells (PBMCs; Daudi cells) (human, UniProt O00481 30-513); test: cell-based or functional assay
[12] = target: T1, human BTN3A, endogenous on human cells …; test: flow cytometry, human PBMCs Donor 1, PE anti-human secondary
Method: Frozen PBMCs were revived, added to pre-warmed AIM-V (ThermoFisher Scientific, Loughborough, UK) media and counted. Cells were harvested, washed by centrifuging at 500×g for 10 minutes and then resuspended in 1×DPBS, pH 7.4. This step was repeated once and the cells were resuspended in 1×DPBS, pH 7.4 at 1×10⁶ cells/mL. Cells were stained for viable and dead cells by incubating for half an hour in the dark using the LIVE/DEAD® Far Red Dead Cell staining kit (ThermoFisher, Paisley, UK) following the manufacturer's instructions. An aliquot of cells heated at 70° C. for ten minutes was included as the dead cell control. During this staining, a three-point, 1 in 3 titration curve of test antibody (starting from 0.063 μg/mL for the selected antibodies) was prepared in Flow buffer (0.5% BSA, 2 mM EDTA, 1×DPBS, pH 7.4) in a 96-well dilution plate. […] Cells were then analysed on an Attune NxT focusing cytometer (ThermoFisher Scientific, Loughborough, UK), collecting 10,000 events per sample using two laser channels: RL1 for live/dead cells and BL2 for PE. Data was analysed using the instrument statistic tool or FlowJo software (Version 10, FlowJo, LLC, Ashland, USA) gating on the live population of lymphocyte cells. The X-median values from BL2 channel (PE signal) were then calculated and plotted against concentration. […]

[13] = target: T2, BTN3A1 antigen (Sino Biological cat. no. 15973-H08H) (human, UniProt O00481 30-254); test: SPR Biacore T200, single cycle kinetics, culture supernatants
T2 construct: Bought recombinant antigen; also called CD277
Method: To assess the binding of all Composite Human Antibody™ variants and to select antibodies with suitable affinity to BTN3A as compared to the original murine antibody, single cycle kinetic analysis was performed on supernatants from transfected cell culture using a Biacore T200 (serial no. 1909913) running Biacore T200 Evaluation Software V2.0.1 (Uppsala, Sweden).

[14] = target: T2, BTN3A1 antigen (Sino Biological cat. …); test: SPR Biacore T200, multi-cycle kinetics, antibody captured on Protein A, BTN3A1 as analyte
Method: Multi-cycle kinetic analysis was performed on the six selected humanized 103.2 variants (VH4/Vκ2, VH4/Vκ3, VH4/Vκ4, VH5/Vκ2, VH5Vκ3, VH5/Vκ4) together with the chimeric antibody and the humanized variant, VH1/Vκ1, using a Biacore T200 (serial no. 1909913) instrument running Biacore T200 Evaluation Software V2.0.1 (Uppsala, Sweden).
Purified antibodies were diluted to a concentration of 2 μg/ml in 2% BSA/PBS. At the start of each cycle, each antibody was captured on the Protein A at a density (RL) of ˜146.5 RU (theoretical value to obtain an RMax of ˜50 RU). Following capture, the surface was allowed to stabilize before injection of the BTN3A1 antigen (Sino Biological cat. no. 15973-H08H). BTN3A1 was titrated in 0.1% BSA/HBS-P+(running buffer) in a two-fold dilution range from 25 to 0.78 nM. The association phase was monitored for 400 seconds and the dissociation phase for 35 minutes (2100 seconds). Kinetic data was obtained using a flow rate of 50 μl/min to minimize any potential mass transfer effects. Regeneration of the Protein A surface was conducted using two injections of 10 mM glycine-HCL pH 1.5 at the end of each cycle. Two blanks (no BTN3A1) and a repeat of a single concentration of the analyte were performed for each tested antibody to check the stability of the surface and analyte over the kinetic cycles. The signal from the reference channel Fc1 was subtracted from that of Fc2, Fc3 and Fc4 to correct for differences in non-specific binding to a reference surface. Additionally, blank runs were subtracted for each Fc to correct any antigen-independent signal variation, such as drift. Sensorgrams were fitted using a one-to-one binding mathematical model with a global RMax parameter and no bulk signal (Constant RI=0 RU).
The relative KD compared to 103.2 chimeric (VH0/Vκ0) was calculated by dividing the KD of the 103.2 Composite Human Antibody™ variants by that of the chimeric on the same chip.

[15] = target: T3, human BTN3A2 expressed on HEK293 cells (human, UniProt P78410 30-334); test: cell microarray (Retrogenix), fixed HEK293 cells, 2 µg/ml antibody
T3 construct: Cell microarray (Retrogenix); also called BTN3A2 (two isoforms)

[16] = target: T4, human BTN3A3 expressed on HEK293 cells (human, UniProt O00478 30-584); test: as above
T4 construct: Cell microarray (Retrogenix); one isoform of BTN3A3 was a hit; also called BTN3A3 (one isoform)
T4 sequence (O00478 30-584 limits assumed): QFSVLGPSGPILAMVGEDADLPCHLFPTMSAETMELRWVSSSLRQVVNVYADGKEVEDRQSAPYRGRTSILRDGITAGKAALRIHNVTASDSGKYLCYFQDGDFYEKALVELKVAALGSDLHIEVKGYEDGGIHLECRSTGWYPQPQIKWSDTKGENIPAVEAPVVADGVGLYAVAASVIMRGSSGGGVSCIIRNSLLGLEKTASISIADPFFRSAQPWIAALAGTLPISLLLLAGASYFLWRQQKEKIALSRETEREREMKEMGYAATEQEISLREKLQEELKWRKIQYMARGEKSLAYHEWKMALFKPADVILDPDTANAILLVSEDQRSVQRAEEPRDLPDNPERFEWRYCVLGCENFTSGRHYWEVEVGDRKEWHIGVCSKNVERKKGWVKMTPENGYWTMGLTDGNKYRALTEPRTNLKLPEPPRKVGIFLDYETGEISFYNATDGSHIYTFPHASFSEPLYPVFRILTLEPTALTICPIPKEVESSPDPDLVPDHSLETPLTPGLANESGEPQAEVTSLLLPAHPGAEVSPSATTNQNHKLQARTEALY

T2 sequence (O00481 30-254 limits assumed): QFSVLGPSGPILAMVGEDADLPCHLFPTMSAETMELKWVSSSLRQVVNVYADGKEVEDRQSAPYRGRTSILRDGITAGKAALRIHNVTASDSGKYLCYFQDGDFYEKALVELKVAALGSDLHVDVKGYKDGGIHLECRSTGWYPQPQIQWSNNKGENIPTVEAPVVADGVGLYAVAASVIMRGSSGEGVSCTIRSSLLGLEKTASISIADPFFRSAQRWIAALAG
BTN3A1 antigen (Sino Biological cat. no. 15973-H08H) (human), sequence (O00481 30-254 limits assumed): as above
human BTN3A, endogenous on human cells (PBMCs; Daudi cells) (human), sequence (O00481 30-513): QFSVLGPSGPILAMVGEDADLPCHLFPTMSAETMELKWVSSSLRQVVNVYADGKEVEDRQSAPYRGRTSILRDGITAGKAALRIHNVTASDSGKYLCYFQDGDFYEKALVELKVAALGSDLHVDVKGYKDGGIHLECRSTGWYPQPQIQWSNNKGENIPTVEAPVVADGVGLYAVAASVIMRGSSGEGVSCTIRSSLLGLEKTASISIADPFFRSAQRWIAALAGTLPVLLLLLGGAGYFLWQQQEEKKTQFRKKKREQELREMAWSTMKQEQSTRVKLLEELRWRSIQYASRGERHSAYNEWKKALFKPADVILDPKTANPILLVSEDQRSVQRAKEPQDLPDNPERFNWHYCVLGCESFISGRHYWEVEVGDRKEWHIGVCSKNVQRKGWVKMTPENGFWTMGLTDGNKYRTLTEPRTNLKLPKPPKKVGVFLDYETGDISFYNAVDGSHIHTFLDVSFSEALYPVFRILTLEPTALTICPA
T1 sequence (O00481 30-513): as above
T3 sequence (P78410 30-334 limits assumed): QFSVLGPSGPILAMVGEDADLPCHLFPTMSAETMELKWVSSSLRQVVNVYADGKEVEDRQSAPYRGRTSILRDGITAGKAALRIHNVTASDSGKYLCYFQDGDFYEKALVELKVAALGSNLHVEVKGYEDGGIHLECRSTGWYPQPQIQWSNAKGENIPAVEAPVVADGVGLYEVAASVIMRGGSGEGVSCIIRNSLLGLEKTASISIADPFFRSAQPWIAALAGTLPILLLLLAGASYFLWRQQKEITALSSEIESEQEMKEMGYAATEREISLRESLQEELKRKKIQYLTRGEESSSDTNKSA

Theoretical Max binding (MFI) [1]: 19600 MFI | EC50 [2]: 0.019 µg/mL | Kd [3]: 0.0403 nM | Relative KD to 103.2 chimeric [3]: 1 | Theoretical Max binding (MFI) [4]: 8950 MFI | Theoretical Max binding (MFI) [5]: 5940 MFI | Theoretical Max binding (MFI) [6]: 5150 MFI | EC50 [7]: 0.014 µg/mL | EC50 [8]: 0.012 µg/mL | EC50 [9]: 0.013 µg/mL | Kd [10]: 0.106 nM | Relative KD to chimeric [10]: 1 | koff [10]: 8.98e-05 s⁻¹ | kon [10]: 845000 M⁻¹ s⁻¹
Molecule: 103.2 chimeric antibody VH0/Vκ0

IC50 (µg/ml), inhibition of γδ T cell degranulation (CD107a/b) against Daudi cells [11]: 0.0121 µg/mL | Theoretical Max binding (MFI) [4]: 8560 MFI | Theoretical Max binding (MFI) [5]: 5820 MFI | Theoretical Max binding (MFI) [6]: 4970 MFI | EC50 [7]: 0.013 µg/mL | EC50 [8]: 0.011 µg/mL | EC50 [9]: 0.012 µg/mL | EC50 [12]: 0.017 µg/mL | Kd [13]: 0.054 nM | Relative KD to 103.2 chimeric [13]: 1.3 ratio | Kd [14]: 0.108 nM | Relative KD to chimeric [14]: 1 ratio | koff [14]: 8.33e-05 s⁻¹ | kon [14]: 770000 M⁻¹ s⁻¹
B1: 103.2 humanized variant VH4/Vκ4 (antibody, V domains shown)
VH: QVQMQQSGAEVKKPGASVKVSCKASGYAFTSYLIHWIKQRPGQGLEWIGVINPRSGDSHYNEKFKDRVTMTADQSISTAYMELSRLRSDDTAVYYCARSDYGAYWGQGTLVTVSS
VL: EIVLTQSPATLSVSPGERATLSCRASQSISNNLHWYQQKPGQAPRLLIKYASQSAFGIPARFSGSGSGTEFTLTISSLQSEDFAVYFCQQSNSWPHTFGQGTKLEIK
notes: also called H4K4; 103.2 VH4/V κ 4

binding result [15]: binds | binding result [16]: binds
B2: mAb1 (Fc-silenced humanized 103.2 IgG1) (antibody, V domains shown)
VH: B1 VH
VL: EIVLTQSPATLSVSPGERATLSCRASQSISNNLHWYQQKPGQAPRLLIKYASQSAFGIPARFSGSGSGTEFTLTISSLQSEDFAVYFCQQSNSWPHTFGQGTKLEIKR
notes: Fc-silenced human IgG1, kappa; also called humanized 103.2 Fc-silenced IgG1; Hu103.2
